Reference: the nanobody polyreactivity screen of Harvey et al. (2022)

Assay: yeast display, Sf9 membrane polyspecificity reagent, FACS + sequencing; frameworks hold sequencing errors
Method in brief: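 Genes from sorted yeast were amplified by colony PCR, read by MiSeq 2 × 250 sequencing and filtered on CDR length. These cells carried a synthetic nanobody library in Saccharomyces cerevisiae BJ5465 and were sorted by FACS into low and high (top ~1%) gates on anti-HA and streptavidin fluorescence. Polyreactivity is labelled according to the gate of origin.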

Sequence	polyreactivity (PSR sort gate)
QVQLVESGGGLVHAGGSLRLSCAASGRIFTAYAMGWYRQAPGKERELVASISTSGGRTYYADSVKGLFTISRDNAKNTVYLQMNSLIPEDTAVYYFAADFESYSRYYDGYDYWGQGTQVTVSS	high polyreactivity
QVQLVESGGGLVQAGGSLRLSCAASGRTFLIYAMGWYRQAPGKERELVAAITSGGRTKYADSVKGRFTISRDNAKNTVYLQMNSLKPEDTAVYYCAARTGVYRYSRKFYYWGQGTQVTVSS	high polyreactivity
QVQLVESGGGLVQAGGSLRLSCAASGSTFVTYAMGWYRQAPGKEREFVAAISRTGGSTYYADSVKGRFTISRDNAKYTVYLQMNSLKPEDSAVYYCNRVGRGYSHNQYDLGYWGQGTLVTVSS	low polyreactivity
QVQLVESGGGLVQAGGSLRLSCAASGSIFGRNAMGWYRQAPGKERELVADIWNGGSTYYADAVKGRFTISRDNAKNTVYLQMNSLKPEDTAVYYCNADADDVGRFGGYIKYDYWGQGTQVTVSS	low polyreactivity
QVQLVESGGGLVQAGGSLRLSCAASGSIFQSYSMGWYRQAPGKERELVAAISRGGSTYYADSVKGRFTISRDNAKNTVYLQMNSLKPEDTAVYYCAAGSGGGKYLYYYWGQGTQVTVSS	low polyreactivity
QVQLVESGGGLVQAGGSLRLSCAASGRIFYQYAMGWYRQAPGKEREFVAAISISGTSTYADSVKGRFTISRDNAKNTVYLQMNSLIPEDTAFYYCNVGPRAGWYRSNYDYWGQGTQVTVSS	low polyreactivity
QVQLVESGGGLVQAGGSLRLSCAASGRTFYPYAMGWYRQAPGKERELVAAISWNGGRTYYADSVKGRFTISRDNAKNTVYLQMTSLKPEDTAVYYCAADTAYYGFDYWGQGTQVTVSS	low polyreactivity
QVQLVESGGGLVQAGGSLRLSCADSGGILFNYDMGWYRPAPGKERELVAAISRRGGTTYYADSVKGRFTISRDNAKNTVYLQMNSLKPEDTAVYYCAAYIYYSYYARVGYGDGNGYDYWGQGTQVTVSS	high polyreactivity
QVQLVESGGGLVQAGGSLRLRCAASGFTFTKNAIGWYRQAPGKERELVAAITRRGSSTYYADSVKGRFTISRDNAKNTVYIQMNSLKPEDTAVYYCNADYETISGDYWGQGTQVTVSS	high polyreactivity
QVQLVESGGGLVQAGGSLRLSCAASGRISRRYAMGWYRQAPGKERELVAAITSGGRTYYADSVKGRFTISRDNAKNTVYLQMNSLKPEDTAVYYCAAAGYLPSTYWGQGTQVTVSS	high polyreactivity
QVQLVESGGGLVQAGGSLRLSCAASGRIFADNAMGWYRQAPGKERELVADITYSGGSTYYADSVKGRFTISRDNAKNTVYLQMNSLNPEDTAVYYCAKQGVDYWGQGTQVTVSS	low polyreactivity
QVQLVESGGGLVQAGGSLGVSCAASGSTFRTYAMGWYRQAPGKERELVAAISQRGGSTYYADSVKGRFTISRDNAKNTVYLQMNSLTPEDSAVYYCAARYGVRYIYRMDYWGQGSQVTVSS	high polyreactivity
QVQLVESGGGLVQAGGSLRLSCAASGSTFHRYAMGWYRQAPGKERELVATINLNTGSTYADSVKGRFTISRDNAKNTVYLQMNSLKPEDTAVYYCAAYGRWPFTWYNYWGQGTQVTVSS	low polyreactivity
QVHLVESGRGLFQAGGSLRLSCAASGFTFTTYVMGWYRQAPGKERELVAAITSGGSTNYADSVKGRFTISRDNAKNTVFLQMNSLKPEDTAVYFCNAVKDDGKGSYPNLHVFDYDYWGQGTQVTVSS	low polyreactivity
QVQLVESGGGLFQEGGSLRLSCAASGSTFANYVMGWYRQAPGKEREFVAGITRSGGSTYYADSVKGRFTISRDNAKNTVYLQMNSLKPEDTAVYYCNKVRRASYYYEYDYWGQVTQVTVSS	low polyreactivity
QVQLVDSGGGLVQAGGSLRLSCAASGSIFYYYAMVWYRQAPGKERELVAAISRNGGSTSYADSVKGRFTISRDNAKNTVYLQMNSLKPEDTAVYYCAVRKFHYFRYEYWGQGTQVTVSS	low polyreactivity
QVQLVESGGGLVQAGGSLRISCAASGLYAMGWYRQAPGKERELVADINSSGGSITNYADSVKGRFTISRDNAKNTVYLQMNSLKPEDTAVYYCNPDVPGDTGWWGFDYWGQGTQVTVSS	low polyreactivity
QVQLVESGGGLVQAGGSLRLSCAASGFTFYYYAMGWYRQAPGKERELVAAITSSGGRTYYADSVKGRFTISRDNAKNTVYLQMNSLKPEDTAVYYCAATGFYHRGEYYYWGQGTQVTVSS	low polyreactivity
QVQLVESGGGLVQAGGSLRLSCAASGFTFWTYAMGWYRQAPGKERELVAAISRSAGRTYYADSVKGRFTISRDNAKNTVYLQMNSLKPEDTAVYYCNARAGYVRYGYWGQGTQVTVSS	high polyreactivity
QVQLVESGGGLVQAGGSLRLSCAASGSIISANAMGWYRQAPGKESELVAAITSGDSTKYADSVKGRFTISRDNAKNTVYLQMNSLKPEDTAVYYCAVDRGVYKNRDGEEYWGQGTQVTVSS	low polyreactivity
QVQLVESGGGLVQAGGSLLLSCAASGSTFGANAMGWYRQAPGKEREFVAAISRSGVRTYYADSVKGRFTISRDNAKNTVYLQMNSLKPEDTAVYYCAADGYWWTYTRYDYWGQGTQVTVSS	low polyreactivity
QVQLVDSGGGLVQAGGSLRISCAATGSIFGPNAMGWNRQPPGKERELVAAISRRGGTTYYADSVKGRFTISRDNSKNTFYLQMNSLKPEDTAVYYCATVLYKAYNDYGYWGQGTQVTVSS	high polyreactivity

Sequence	polyreactivity (PSR sort gate)
QVQLVESGGGLVQAGGSLRLSCAASGRTFNKYAMGWYRQAPGKERELVAAISTRGGSTYYADSVKGRFTISRDNAKNNVYLQMNSLKPEDTAVYYCAARLTTVGQGFDYWGQGTKVTVSS	high polyreactivity
QVQLVESGGGLVQAGGSLRLSCAASGSIFYLNAMGWYRQAPGQERELVASISNGGSTNYADSVKGRFTISRDNAKHTVYLQMNSLKPEVTAVYYCAADYVVSAFDYWGQGTQLTVSS	low polyreactivity
QVQLVESGGGLVQAGGSLRLSCADSGYIFEVYAMGWYRPAPGKERELVAAIDYSDGTTYYADSVKGRFTISRDNAKNTVYLQMNSLKPEDTAVYYCAADFPGQHYDYWGQGTQVTVSS	low polyreactivity
QVQLVESGGGLVQAGGSHRLSCAASGSIFYQYAMGSYRQAPGKERELVAAITWIGSTYYADSVKGRFTISRDNAKNTVYLQMNSLKPEDTAVYYCNTDPYVLQKYDYWGQGTQVTVSS	low polyreactivity
QVQLVESGGGLVQAGGSLRLSCAASGFTFTYYALGWYRQAPGKERQLVAAISSRGGRTYYADSVKVRFRISRDNAKNTVYLLMKSLKPEDTAVYYCAARVYKGWPTHYDYLGQGTQVTVSS	high polyreactivity
QVQLVESGGGLVQAGGSLRLSCAASGFTFRRYDMGWYRQAPGKERELVATLNRGGSTDYADSVKGRFTISRDNAKNTVYFQLNSLKPEETAVYYCATRYYSSRNWSEYYYWGQGTQVTVSS	high polyreactivity
QVQLVESGGGLVQAGGTLRISCAASGRIFTIYAMGWYRQAPGKERELVATISSNVGSTYYADSVKGRFTISRDNAKNTVYLQMNSLKPEDTAVYYCAATRRAGFTTAKFDYWGQGTQVTVSS	high polyreactivity
QVQIVESGGGLVQAGGSLRLSCAASGSTLYAYAMGWYRQAPGKERELVAAIRTGGSTYYADSVKGRFTISRDNAKNTVYLQMNSLKPEDTAVYYCADDHGYQYGYWGQATQVTVSS	low polyreactivity
QVQLVESGRGLVQAGGSLRLTCAASGSTFTANDMGGSRPATGTERELFADISSGDGTNYADSVKGRFTISRDNAKNTVYLQMISLKPEDTAVYYCAKDVYNFRTTHSYFTGYDSWGHGTQVTVSS	low polyreactivity
QVQLVESGGGLVQAGGSLRLSCAASGSTFESNTMGWYIQAPGKERELVAAISYSGGRTYYADSVKGRFTISRDNAKNTVYLQMNSLKPEDTAVYYCAARTFRISRMDYWGQGTQVTESS	high polyreactivity
QVQLVESGGGLVQAGGSLRFICAASGRTFDWYAMGWYRPAPGKERELVAGNSWSGGSTYYADSVKGRFTISRDNAKNTVYLQMNSLKPEDTAVYYCAAEYPFEIGYVYYYIDYDYWGQGTQVTVSS	low polyreactivity
QVQLVESGGGLVQAGGSLRLSCAASGSIFLENAMGWYRQAPGKERELVAAISRSGGSTYYADSVKGRFTISRDNAKNTVYLQMNSLKPEDTAVYYCNAYRDVYNYFFGAKYDYWGQGTQVTVSS	high polyreactivity
QVQLVESGGRLVQAGGSLRLSCAASGITFGVYAMGWYRQAPGKERELVAAISRRGAATYYADSVKGRFTISRDNAKNTVYLQMNSLKPEDTAVYYCAAYLARRQYDYWGQGTHVTVSS	high polyreactivity
QVQLVESGGGLVQAGGSLRLSCAASGRTFSVNAMGWYRPAPGKERELVAAISWDGGSTYYADSVKGRFTISRDNAKNTVYLQMNSLKPEDTAVYYCNKDLYYAYDYWGQGTQVTVSS	low polyreactivity
QLQLVESGGGLVQAGGSLRLSCAASGSIFNRYAMGSYRQAPGKERELVAAITRSAARTYYADSVKGRFTISRDNAKTTVYLQMNRLKPEDTAVYYCKAATTPYGYSYYYLGQGTQVTVSS	high polyreactivity
QVQLVESGGGLVQAGGSLRLSCAASGFIFVDYAMGWYRQAPGTERELVAAITSSGDRTYYADSVKGRFTISRDNAKNTVYLQMNSLKPEDTAVYYCNADWSTAWYTSYDYWGQGTQVTVSS	low polyreactivity
QVQLVESGGGLVQAGGSLRLSCAASGSYTMGWYRQAPGKERELVAAISKSCGSTYYADSVKGRFTISRDNAKNTVYLQMNSLKPDDTAVYYCAAVGWWGTYDYWGQGTQVTVSS	high polyreactivity
QVQLVESGGGLVQAGGSLRLSCAASGYTFGYYAMGWYRQAPGKERELVAAISYSGGNTYYADSVKGRFTISRDNAKNTVYLQMNSLKPEDTAVYYCNKRYWVRTGKVSSYAYWGQGTQVTVSS	high polyreactivity
QVQLVESGGGLVQAGGSLRLSCAASGSTLYPNPMGWYRQAPGTERELVAAISGTGGGTYYADSVKGRFTISRDNAKNTVYLQMNSLKPEDTAVYYCAADYVFAWWGDYYWGQGTQVTVSS	high polyreactivity
QVQLVESGGGLVQAGGSLRLSCAPSGITFRYYAMGWYRQAPGKERELVAAITRSGSTTYADSVKGRFTISRDNAKNTVYLQMNSLKPEVTAVYYCAVDYYYLTGGVDYWGQGTQVTVSS	low polyreactivity
QVQLVESGGGLVQAGGSLRLSCAASGLIFRYYAKGWYRQAPGKERELFAAISLRGGSTYYADSVKGRFTISRDNAKNNVYLQMNSLKPEDTAVYYCAAQWASFSVANLYGYWGQGTQVTVSS	high polyreactivity
